Measurements: the supplement of paper PMC12042874
± gives the uncertainty stated by the source.

Assay: amyloid nucleation score (Sup35N fusion, yeast selection) (log enrichment); library NNK3; higher = more nucleation; inactive = no reads after selection
In short: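 The nucleation score is the DiMSum log enrichment of output over input reads, centred on the mode score of non-aggregating sequences. Only sequences with 100 or more input reads were scored, using Illumina sequencing of input and output plasmid inserts. Psi-negative yeast expressing Sup35N fused to peptides of 20 random codons were induced 24 hours with 100 μM copper sulfate and grown 7 days at 30°C on medium lacking adenine and uracil.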

Substance: CADQWS
- amyloid nucleation score: inactive

Substance: MCYLSSSDAGDVIPAWC
- amyloid nucleation score: inactive

Substance: GPYNCFVH
- amyloid nucleation score: inactive

Substance: HPVYMVSTRWRRGGSDWV
- amyloid nucleation score: inactive

Substance: DRGFGYGSITKGINA
- amyloid nucleation score: inactive

Substance: MCEGAIQQRILLSMKFCCKW
- amyloid nucleation score: 0.037 ± 0.87

Substance: CGMCLGLLHR
- amyloid nucleation score: 0.898 ± 0.21

Substance: RAYTDV
- amyloid nucleation score: inactive

Substance: RLAFVHKMTLRMSRERYLAI
- amyloid nucleation score: -0.009 ± 0.35

Substance: IHLVFREDITLVWVWNWIHV
- amyloid nucleation score: inactive

Substance: SNYPWCSSSYYLGKISDLCS
- amyloid nucleation score: inactive

Substance: KPLVV
- amyloid nucleation score: inactive

Substance: KFGSLVKTYFRDMFRSILCW
- amyloid nucleation score: inactive

Substance: RWFRTVGKFFGHIFS
- amyloid nucleation score: 0.039 ± 0.45

Substance: NFSCSSRNRWMCMDVGKVCR
- amyloid nucleation score: -0.287 ± 0.34

Substance: LSNMMVVPSTSERFFFRAMG
- amyloid nucleation score: inactive

Substance: ADMCWTNRSETYDGELTVGV
- amyloid nucleation score: inactive

Substance: MNRDTYSMWSVKDKMTFI
- amyloid nucleation score: -0.124 ± 0.75

Substance: FLDSLYKRGCNKFGQLWR
- amyloid nucleation score: inactive

Substance: LSPCGL
- amyloid nucleation score: inactive

Substance: FGAKR
- amyloid nucleation score: 0.909 ± 0.18

Substance: FKLDSMCRLKRAAN
- amyloid nucleation score: inactive

Substance: PFVFTLNDQCGGIRSLICVL
- amyloid nucleation score: inactive

Substance: LQTMTDSFKRTQCLCSYKCT
- amyloid nucleation score: inactive

Substance: RLLHSGRS
- amyloid nucleation score: inactive

Substance: ATYNEMYVVPSRASPKGDWD
- amyloid nucleation score: inactive

Substance: IVKCLYVVCV
- amyloid nucleation score: inactive

Substance: CFCYSLDSLLQVGNNS
- amyloid nucleation score: inactive

Substance: ARLAYMYMEDGKCSTHRGKF
- amyloid nucleation score: inactive

Substance: ELLKPCNVCYRWYNTHALLV
- amyloid nucleation score: 0.724 ± 0.18

Substance: RLNLNVIL
- amyloid nucleation score: 2.58 ± 0.087

Substance: GLSDGWVGHRSYGSENVLLK
- amyloid nucleation score: inactive

Substance: KLSDDRKTRCNYYFMGLVVV
- amyloid nucleation score: inactive

Substance: YCGTY
- amyloid nucleation score: inactive

Substance: QKMCKPVFV
- amyloid nucleation score: inactive

Substance: VRAGSLYHCVRNPISRGLAV
- amyloid nucleation score: -0.57 ± 1.8

Substance: SGLDSWY
- amyloid nucleation score: inactive

Substance: LMQDLENVS
- amyloid nucleation score: inactive

Substance: VMFMIAGNC
- amyloid nucleation score: inactive

Substance: VSDDLMDGSKNVLFARVEGD
- amyloid nucleation score: inactive

Substance: GLDYLLHAIYFECRQSGGSR
- amyloid nucleation score: 0.983 ± 0.17

Substance: TVGGEIVNSLGVWCYRVCKR
- amyloid nucleation score: 0.723 ± 0.26

Substance: LHWSIDR
- amyloid nucleation score: inactive

Substance: HLLPLYTKSIVGYTTNAIPN
- amyloid nucleation score: inactive

Substance: SGRVTRWITSAMVARN
- amyloid nucleation score: inactive

Substance: KIHCAESATVVLWVRVGDCR
- amyloid nucleation score: inactive

Substance: VFFLNIAIIRVECSYPLVRK
- amyloid nucleation score: -0.223 ± 0.75

Substance: VVCLGTFITGDFIVVYTHYG
- amyloid nucleation score: 2.88 ± 0.054

Substance: TKRWHR
- amyloid nucleation score: inactive

Substance: SLVNGAWLAVMNMSRCLWIF
- amyloid nucleation score: inactive

Substance: FFAILHLRVNARMCYGNGAY
- amyloid nucleation score: 0.435 ± 0.48

Substance: TAKGVKSDLECGCNVFRTEC
- amyloid nucleation score: 0.457 ± 0.15

Substance: KTIFFMKGLVMSDDICSDRR
- amyloid nucleation score: inactive

Substance: GSCRGVRWASRE
- amyloid nucleation score: inactive

Substance: ANSYHWTVFVRMFSQDIVNI
- amyloid nucleation score: inactive

Substance: GLNYS
- amyloid nucleation score: inactive

Substance: IQLAYIPEMALPTSWARVSG
- amyloid nucleation score: inactive

Substance: CLGIGWFWVPWRLGVYSQMV
- amyloid nucleation score: inactive

Substance: FFVFSRLVYPWCGMFFLSLK
- amyloid nucleation score: inactive

Substance: EHEFYTKDNFLRGIFYNTNL
- amyloid nucleation score: inactive

Substance: CSLTCWSVVRVFQYEILRE
- amyloid nucleation score: inactive

Substance: VMCSWLTGCYIQKNRFQGSL
- amyloid nucleation score: 0.724 ± 0.27

Substance: RQTCFIMVSCYPVKNGNSEI
- amyloid nucleation score: 1.48 ± 0.15

Substance: VGGGVPVTLGFSLRRSWSVV
- amyloid nucleation score: 0.199 ± 0.62

Substance: FPCSGPACYIYYTLHGLSLG
- amyloid nucleation score: inactive

Substance: IVGDGDGQTCCVSRSLCGMV
- amyloid nucleation score: inactive

Substance: LVRCRVVWDLL
- amyloid nucleation score: inactive

Substance: YSGKNLVRSTAGGAVKPVC
- amyloid nucleation score: inactive

Substance: VPPFPRMEAGGYVHVVAFSV
- amyloid nucleation score: inactive

Substance: YEWSYCFNYLCHHYDTNWQR
- amyloid nucleation score: 2.96 ± 0.056

Substance: DNSSLSMK
- amyloid nucleation score: inactive

Substance: SLRSYSDVSVVRFDANSTVS
- amyloid nucleation score: inactive

Substance: LMVVWMLYGNNTCYDALMLC
- amyloid nucleation score: inactive

Substance: HYVKPSSESRR
- amyloid nucleation score: inactive

Substance: MRQIAQRCRSGNAACIGSLG
- amyloid nucleation score: 0.664 ± 0.23

Substance: KRFHWFGVGVDAVMRFGV
- amyloid nucleation score: inactive

Substance: PVKMGVVLCNKWIYSKGTKN
- amyloid nucleation score: inactive

Substance: EIMGICTLTVIFCKC
- amyloid nucleation score: 1.58 ± 0.1

Substance: SKLKATRTRL
- amyloid nucleation score: inactive

Substance: VSYVCDPLRKIVGTLVRKQV
- amyloid nucleation score: 0.563 ± 0.33

Substance: NNYSRVLSSIIEGIVIR
- amyloid nucleation score: inactive

Substance: RCRKHALLFHRCILGYSVLP
- amyloid nucleation score: inactive

Substance: KALSSDPTICFRRAFIVHCK
- amyloid nucleation score: inactive

Substance: CMSTKTNFT
- amyloid nucleation score: inactive

Substance: KLMEICYRVRIRRMECQVNW
- amyloid nucleation score: 0.753 ± 0.12

Substance: FYMFDSRLLFWRYCCWKFSY
- amyloid nucleation score: inactive

Substance: VLTYTFRPSVSCSNKSKGSA
- amyloid nucleation score: 0.107 ± 0.35

Substance: WSEHGQWMYNRLCGSGFISH
- amyloid nucleation score: inactive

Substance: VSLFYKCSYNGVYNNRVLAP
- amyloid nucleation score: 1.43 ± 0.09

Substance: LVSMWMQASILLYCNGSNHW
- amyloid nucleation score: 1.61 ± 0.11

Substance: GSWSKNMILHTLDLDCVAIV
- amyloid nucleation score: inactive

Substance: KYDSY
- amyloid nucleation score: inactive

Substance: LCCTRTSHIMSRVARMAFRV
- amyloid nucleation score: inactive

Substance: NLLVFDACHGVIRYGKTRVA
- amyloid nucleation score: inactive

Substance: VWVKSGKWYRQLIRKYVGSS
- amyloid nucleation score: inactive

Substance: SRIIVRN
- amyloid nucleation score: inactive

Substance: TLFERRCSGTIMHRIQRREF
- amyloid nucleation score: inactive

Substance: VSVLIHGKRSFGMWCSMHAY
- amyloid nucleation score: inactive

Substance: TMHLTHRYSTVLRESLVGSR
- amyloid nucleation score: inactive

Substance: NMTTLVKTMEDNMDSCISGV
- amyloid nucleation score: 1.12 ± 0.11

Substance: RLYAALMFSSVRLCACVALV
- amyloid nucleation score: inactive

Substance: NNRCNKFPGYTL
- amyloid nucleation score: inactive

Substance: KVWSLYLYVRSTYRL
- amyloid nucleation score: inactive

Substance: SNWSWQSPW
- amyloid nucleation score: inactive

Substance: RFLLVVMF
- amyloid nucleation score: inactive

Substance: TATWSFNVT
- amyloid nucleation score: inactive

Substance: YWYYGCGSVGFAIRPWMSGI
- amyloid nucleation score: 1.58 ± 0.11

Substance: FWKWL
- amyloid nucleation score: inactive

Substance: KDVSPVCNVPMSGWWTTAFL
- amyloid nucleation score: inactive

Substance: VTLCVVEPDCWRIGG
- amyloid nucleation score: inactive

Substance: QLVRQMTKGVG
- amyloid nucleation score: inactive

Substance: LDGGMNNRR
- amyloid nucleation score: inactive

Substance: RYLSMELSQEYLFLVVSLVW
- amyloid nucleation score: inactive

Substance: VIRSNYWHTLNWLQQNKSRG
- amyloid nucleation score: inactive

Substance: MKLSVLNVWNSRWGLQTA
- amyloid nucleation score: inactive

Substance: ACGCYVSEIPWLRDRIKFWQ
- amyloid nucleation score: inactive

Substance: DSSMIDRAENAH
- amyloid nucleation score: inactive

Substance: ILDAEVFGLISGFMSMHCNA
- amyloid nucleation score: inactive

Substance: ESCRWLLVFKMVCWQ
- amyloid nucleation score: inactive

Substance: LYVVVASMVGLDASRP
- amyloid nucleation score: 0.266 ± 0.38

Substance: YINQWCTCVT
- amyloid nucleation score: inactive

Substance: NLLSAVY
- amyloid nucleation score: 0.787 ± 0.28

Substance: AYRINRTTDRIIIDSGDVVV
- amyloid nucleation score: inactive

Substance: YQLELSSGSM
- amyloid nucleation score: 0.116 ± 0.28

Substance: NSDATIWYFHRCSRLYVAGM
- amyloid nucleation score: inactive

Substance: IKRGRTVQKVFCMWVVSYPR
- amyloid nucleation score: inactive

Substance: EMCRN
- amyloid nucleation score: inactive

Substance: YFRYIWEHMLVYGRVAKDDP
- amyloid nucleation score: inactive

Substance: LTHGAVTVFYRFIMLSFILR
- amyloid nucleation score: inactive

Substance: TNRMDKYCCV
- amyloid nucleation score: inactive

Substance: NCSWGRRKETTDLSGSKCWT
- amyloid nucleation score: 0.881 ± 0.23

Substance: SSALRMYVCSAWG
- amyloid nucleation score: inactive

Substance: LKDCTCEFIFMTGKYCIYFR
- amyloid nucleation score: -0.495 ± 0.76

Substance: CSWVGAMFVQWNLPAPTEGI
- amyloid nucleation score: 0.341 ± 0.37

Substance: SLCRSLGLGLLAPYRFFTWR
- amyloid nucleation score: inactive

Substance: YEFATNAQESS
- amyloid nucleation score: inactive

Substance: DLRCHGYC
- amyloid nucleation score: inactive

Substance: PYIRNYSCSGSNQYLWDTSD
- amyloid nucleation score: inactive

Substance: GGLSL
- amyloid nucleation score: inactive

Substance: RNGTHCTIDEIYGW
- amyloid nucleation score: 0.038 ± 0.58

Substance: GTTYTAHYAWSTVGDIWSLH
- amyloid nucleation score: inactive

Substance: LLLTYFMMGYYVVWYVFGYW
- amyloid nucleation score: inactive

Substance: SVYPYESYLVW
- amyloid nucleation score: inactive

Substance: SSLSTNARVDLSMRR
- amyloid nucleation score: inactive

Substance: YWDDSMKYDLKMVERSVGGK
- amyloid nucleation score: inactive

Substance: GYRYIVDLG
- amyloid nucleation score: inactive

Substance: VGHPFNCSLDCF
- amyloid nucleation score: inactive

Substance: KMFSLWFQ
- amyloid nucleation score: 1.69 ± 0.12

Substance: RGQGKHNSRYFCLIT
- amyloid nucleation score: inactive

Substance: PAKPGL
- amyloid nucleation score: inactive

Substance: DEMLHGCPDRVPNLGWY
- amyloid nucleation score: inactive

Substance: QRMMHFVLCVGFDRGIVPVK
- amyloid nucleation score: inactive

Substance: FRVLYDCGTGYAVCYAMEVK
- amyloid nucleation score: inactive

Substance: MCFTLIKLLIQWKREDQIDE
- amyloid nucleation score: 1.07 ± 0.096

Substance: WHGYYMFLW
- amyloid nucleation score: inactive

Substance: LLKRKLIVAFKKSMLFDFMV
- amyloid nucleation score: inactive

Substance: TVRDTEFLWFGDWLRRGSLS
- amyloid nucleation score: -0.034 ± 0.77

Substance: NVSFILLYGQCSECTQDA
- amyloid nucleation score: 2.03 ± 0.067

Substance: ELVQKGHGIEWERHGVLFGE
- amyloid nucleation score: inactive

Substance: RASFVLRCFKIDDVVVQFHL
- amyloid nucleation score: 1.23 ± 0.15

Substance: IKFIERWYQFTYVHCLQVMG
- amyloid nucleation score: -0.247 ± 0.64

Substance: SDFPRMNWGFETKCDYSTVR
- amyloid nucleation score: inactive
